# According to patent US20080242590A1, “New Method 706” (ASTRAZENECA AB, priority 2007, published 2008):
# B1: Fc-Neprilysin: extracellular domain of human Neprilysin fused to the human IgG2 Fc domain (including hinge), Fc at N-terminus; SEQ ID NO 11 (protein)
# chain: ERKCCVECPPCPAPPVAGPSVFLFPPKPKDTLMISRTPEVTCVVVDVSHEDPEVQFNWYVDGVEVHNAKTKPREEQFNSTFRVVSVLTVVHQDWLNGKEYKCKVSNKGLPAPIEKTISKTKGQPREPQVYTLPPSREEMTKNQVSLTCLVKGFYPSDIAVEWESNGQPENNYKTTPPMLDSDGSFFLYSKLTVDKSRWQQGNVFSCSVMHEALHNHYTQKSLSLSPGKYDDGICKSSDCIKSAARLIQNMDATTEPCTDFFKYACGGWLKRNVIPETSSRYGNFDILRDELEVVLKDVLQEPKTEDIVAVQKAKALYRSCINESAIDSRGGEPLLKLLPDIYGWPVATENWEQKYGASWTAEKAIAQLNSKYGKKVLINLFVGTDDKNSVNHVIHIDQPRLGLPSRDYYECTGIYKEACTAYVDFMISVARLIRQEERLPIDENQLALEMNKVMELEKEIANATAKPEDRNDPMLLYNKMTLAQIQNNFSLEINGKPFSWLNFTNEIMSTVNISITNEEDVVVYAPEYLTKLKPILTKYSARDLQNLMSWRFIMDLVSSLSRTYKESRNAFRKALYGTTSETATWRRCANYVNGNMENAVGRLYVEAAFAGESKHVVEDLIAQIREVFIQTLDDLTWMDAETKKRAEEKALAIKERIGYPDDIVSNDNKLNNEYLELNYKEDEYFENIIQNLKFSQSKQLKKLREKVDKDEWISGAAVVNAFYSSGRNQIVFPAGILQPPFFSAQQSNSLNYGGIGMVIGHEITHGFDDNGRNFNKDGDLVDWWTQQSASNFKEQSQCMVYQYGNFSWDLAGGQHLNGINTLGENIADNGGLGQAYRAYQNYIKKNGEEKLLPGLDLNHKQLFFLNFAQVWCGTYRPEYAVNSIKTDVHSPGNFRIIGTLQNSAEFSEAFHCRKNSYMNPEKKCRVW
# What was measured:
# [1] = Plasma exposure (Example 23); type: in vivo, APPSWE-transgenic mice; details: for Mean plasma exposure: 1.5 hours; for Plasma exposure: 3 hours
# Method: The Fc-Nep fusion protein was developed to improve the pharmacokinetic entities of neprilysin with the specific aims to reduce clearance and improve half-life. To test this we have administrated a single i.v. dose of either 1 mg/kg commercial neprilysin or 1 alternatively 5 mg/kg in-house produced Fc-Nep to mice. At set times after dosing blood samples were drawn from the tail vein or by heart puncture at termination. Upon sampling into tubes containing EDTA the aliquots were put on ice. Plasma was prepared by centrifugation within 15 minutes of sampling (typically 1500 g at 4° C. for 10 min) and immediately frozen. Plasma concentrations of Fc-Nep and neprilysin were determined via immunoassays using either anti-Nep for commercial neprilysin or anti-human IgG for Fc-Nep as capture antibodies while both substances were detected via an anti-Nep antibody. Pharmacokinetic parameters are calculated using a software package (WinNonlin, Pharsight Corporation, USA) and in this example experiment the calculated half-life had increased from about 5 minutes for Nep to about 20 hours for Fc-Nep.
# 25-31 weeks old female APPSWE-transgenic mice (10 mice/group) received vehicle or the Fc-Nep at 1 or 5 mg/kg as a single intravenous injections. As a reference compound, 300 μmol/kg of the γ-secretase inhibitor M-550426 was used and these animals was treated in 3 hours (4 mice). […] Blood was sampled from vehicle- and compound-treated animals at 1.5 and 3 hours after dose. Blood was withdrawn from anaesthetized mice by heart puncture into pre-chilled microtainer tubes containing EDTA. Blood samples were immediately put on ice prior to centrifugation. Plasma was prepared by centrifugation for 10 minutes at approximately 3000×g at +4° C. within 20 minutes from sampling. After blood sampling, mice were terminated. Aβ40 and Aβ42 levels in plasma were analyzed by commercial ELISA kit obtained from Biosource and Innogenetics, respectively.
# The concentrations of Fc-Nep in plasma and in the formulations were assayed according to the procedures described in Example 20. The exposure in plasma was analysed in samples from non-treated animals (blank) and in samples from animals treated with M550426.
# [2] = Plasma exposure (Example 25); type: in vivo, C57BL/6 mice; details: for Mean plasma exposure: 5 mg/kg i.v.
# Method: 20-21 weeks old female C57BL/6 mice (8 mice/group) received vehicle or hFc-Nep at 5 mg/kg as a single intravenous injection and Aβ40 was analysed at different time points after injection (between 1.5-168 hours, i.e., up to 1 week). The γ-secretase inhibitor M-550426 was given per orally and the animals were treated for 3 hours. A blank group was also included in the study. […] Blood collection, plasma processing and measurement of mouse Aβ40 levels in plasma were basically as described in Example 27.
# [3] = Pharmacokinetics of Fc-Nep and in-house produced Neprilysin, single i.v. dose (Example 27); type: in vivo; details: mice, single i.v. dose 10 or 50 nmol enzyme/kg (1 and 5 mg/kg)
# Method: The Fc-Nep fusion protein was developed to improve the pharmacokinetic entities of neprilysin with the specific aims to reduce clearance and improve half-life. To test this we have administrated a single i.v. dose of 10 or 50 nmol enzyme/kg body weight neprilysin (Nep) or Fc-Nep (1 and 5 mg/kg) to mice. At set times the dose blood samples were drawn from the tail vein or by heart puncture at termination. Upon sampling into tubes containing EDTA the aliquots were put on ice. Plasma was prepared by centrifugation within 15 minutes of sampling (typically 1500 g at 4° C. for 10 min) and immediately frozen. Plasma concentrations of Nep and Fc-Nep were determined via immunoassays using either anti-Nep for Nep or anti-human IgG for Fc-Nep as capture antibodies while both substances were detected via an anti-Nep antibody. Pharmacokinetic parameters are calculated using a software package (WinNonlin, Pharsight Corporation, USA) and in this example experiment the calculated half-life had increased from about 1 day for Nep to about 2.5 weeks for Fc-Nep.
# [4] = Plasma exposure (Example 24); type: in vivo, C57BL/6 mice
# Method: 13 weeks old female C57BL/6 mice (10 mice/group) received vehicle or hFc-Nep at 1 or 5 mg/kg as a single intravenous injection. M-550426 was administrated per orally at 300 μmol/kg 3 hours before termination. A blank group was also included in the study.
# Blood was sampled from vehicle- and compound-treated animals at 1.5 and 3 hours after dose. Blood was withdrawn from anaesthetized mice by heart puncture into pre-chilled microtainer tubes containing EDTA. Blood samples were immediately put on ice prior to centrifugation. Plasma was prepared by centrifugation for 10 minutes at approximately 3000×g at +4° C. within 20 minutes from sampling. After blood sampling, mice were terminated. […] Mouse Aβ40 levels in plasma were analysed by commercial ELISA kit obtained from Biosource. The concentrations of Fc-Nep in plasma and in the formulations were assayed according to the procedures described in Example 27.
# amyloid β 1-40 peptide = assay: Degradation of amyloid β 1-40 peptide by Fc-Neprilysin and Neprilysin in buffer; type: biochemical; details: 2.4 μg/ml, Aβ 1-40 300 nM, 2.5 hours at 37° C., buffer
# Method: The assay is measuring the remaining amyloid β 1-40 peptide (Bachem) concentration following its incubation in the presence of Neprilysin (R&D Systems) or Fc-Neprilysin with or without Neprilysin inhibitor. 100 μl of reaction mixture containing amyloid β 1-40 peptide (final concentrations, 300, 30 or 3 nM) and/or Neprilysin (2.4 μg/ml), and/or Fc-Neprilysin construct (2.4 μg/ml), and/or Phosphoramidone (10 μM) was incubated in a round bottom 96-well polypropylene plate at 37° C. for 2.5 hours. Following incubation, 10 μl of reaction mixture was transferred into Thermo-Fast© 96-well PCR plate (Abgene, UK) containing 10 μl of Standard Diluent (Gyros AB). Amyloid β 1-40 concentration was determined using Gyrolab Workstation LIF system. Biotinylated anti-amyloid β antibodies (6E10; final concentration 50 μg/ml; Signet) were used as capturing antibodies and polyclonal anti-human amyloid β antibodies (44-348; Biosource) labeled with Alexa Fluor 647 dye (Molecular probes) were used as detection antibodies. Amyloid β 1-40 peptide concentration measurement performed according to the manufacturers protocol using Gyrolab Bioaffy™ Software Package Version 1.8 (Gyros AB). Amyloid β 1-40 peptide degradation by Neprilysin was calculated as a percentage of Amyloid β 1-40 peptide left after incubation in the presence of Neprilysin compared to the amyloid β 1-40 peptide concentration in the absence of Neprilysin.
molecule,measurement,setting,value
B1,Mean plasma exposure,[1]; 1 mg/kg i.v.,9.8 µg/mL
same,Plasma exposure,[1]; 1 mg/kg i.v.,7.6 µg/mL
same,Mean plasma exposure,[1]; 5 mg/kg i.v.,33.6 µg/mL
same,Plasma exposure,[1]; 5 mg/kg i.v.,27.3 µg/mL
same,Mean plasma exposure,[2]; 1 week (168 hours),38 µg/mL
same,Mean plasma exposure,[2]; 1.5 hours,87 µg/mL
same,half-life in mice,[2]; 5 mg/kg single i.v.,considerably long
same,calculated half-life,[3],about 2.5 weeks
same,Mean plasma exposure,"[4]; 1 mg/kg i.v., 1.5 hours",14 µg/mL
same,Mean plasma exposure,"[4]; 1 mg/kg i.v., 3 hours",17 µg/mL
same,Mean plasma exposure,"[4]; 5 mg/kg i.v., 1.5 hours",89 µg/mL
same,Mean plasma exposure,"[4]; 5 mg/kg i.v., 3 hours",78 µg/mL
same,Amyloid β 1-40 peptide degraded,amyloid β 1-40 peptide; batch 1,50%
same,Amyloid β 1-40 peptide degraded,amyloid β 1-40 peptide; batch 2,42%
